Consider 1 substance from PMC2877007.

The test concerns the target Epidermal Growth Factor Receptor (EGFR) (human (endogenous in A431)) (UniProt P00533). The test is described as follows: parameter fitting of an ODE model (PottersWheel) and a stochastic simulation (SPS) to immunogold electron microscopy counts; estimated constants; adaptor immunogold label on plasma membrane sheets of A431 cells over a time course of EGF, 20 nM EGF in the model; docking rate multiplied by a scaling factor f and adjusted to match the data.

Usually Kd stands for the constant that tells how readily two partners part at equilibrium. For orientation: koff means the first-order rate constant of dissociation. What is called kon is the second-order rate constant of association. In the case of “Stat5 (from UniProt P42229 1-794) (natural protein)”, the dissociation constant (Kd) is 2130 nM, the koff was 11.7 s⁻¹ and the kon was 5.5e+06 M⁻¹ s⁻¹.
